Fewer inactive variants are shown than the library holds.

Sequences and labels used below:
B1: TPR 5TU (parent)
chain: GGAUCUUCUCGAUCUAACAAAAAAGACAAAUCUGCCACAAAGCUUGAGAGCAUCUUCGGAUGCAGAGGCGGCAGCCUUCGGUGGCGCGAUAGCGCCAACGUUCUCAACUAUGACACGCAAAACGCGUGCUCCGUUGAAUGGAGUUUAUCAUG

The data set covers variants of B1. As to the kind of experiment: polymerase ribozyme fitness, log enrichment relative to wild type (log ratio); higher = more active; in vitro selection for triplet polymerase activity. The procedure, abridged:
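Fitness measures genotype enrichment against wild-type enrichment on a logarithmic scale, with inverse-variance-weighted averaging of replicates. The logarithm is base 2, and genotypes were kept only with ≥10 input reads and ≥1 read per output in Illumina sequencing. The sequenced libraries came from one triplicate in vitro selection round, including frozen incubation at −7 °C, of PCR-built, transcribed mutant libraries of each subunit of a heterodimeric triplet polymerase ribozyme.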
Turning to A23U A26C G50A, the “polymerase ribozyme fitness (log ratio)” value is no more than -4.2.
The figure for A23U C38U G59C C95A U151G is no more than -4.2; for A22U U55A C85G it is -2.29; for A23C A24G A28C C63U G67A A121U U144A it is no more than -4.2.
Consider A22U G48C C51U C116G G124A A150G, for which the “polymerase ribozyme fitness (log ratio)” value is no more than -4.2.
For the variant A23U G46U C87U G88U A119G A120C G133U, the “polymerase ribozyme fitness (log ratio)” value was no more than -4.2.
The figure for A22U C149U is 0.0648.
Take A22U G141A: the “polymerase ribozyme fitness (log ratio)” value was 2.05.
Turning to A22U C54U G81A G83A U90A C95U G141C, the “polymerase ribozyme fitness (log ratio)” value was no more than -4.2.
Consider A22U U82A C96U, for which the “polymerase ribozyme fitness (log ratio)” value was found to be 0.375.
A22U G25A A41C A91G G94C: the “polymerase ribozyme fitness (log ratio)” value is no more than -4.2.
The figure for A22U G59A is -0.47; for A22U A39U A41G A52C G83U G94A G152C it is -4.02.
For A22U A28G G80C C99U C108A G140C the value was no more than -4.2.
For A23G C51U G65C G88C U111A C131G C149G the value was no more than -4.2.
On to A22U A30G G46C G50C A52C U55G G83A G94A, for which the “polymerase ribozyme fitness (log ratio)” value is no more than -4.2.
For A23G A40G G50U C76A G84C the value was no more than -4.2; for A22U A26C G62C C87A C116G A147U, no more than -4.2.
For A23C U55A U82C G136U the value was no more than -4.2; for A22U U135C, -1.64; for A22U G86C, -3.34.
The figure for A23G C36A C105A A107G U145A is no more than -4.2; for A22U G59A A66U G86A A120G A138G it is no more than -4.2; for A23C C27G A60G A97C G124U it is no more than -4.2.
On to A23U C51U C93U G100U C123G, for which the “polymerase ribozyme fitness (log ratio)” value was no more than -4.2.
With A22U C87U G141U, the “polymerase ribozyme fitness (log ratio)” value is 1.15.
With A22U A30C G81A C116G, the “polymerase ribozyme fitness (log ratio)” value is -3.8.
As for A23G G25C A40C G58A U61A G80C G88C, the “polymerase ribozyme fitness (log ratio)” value was no more than -4.2.
The figure for A23U C85U U102A A107U U130G U135G A138C is no more than -4.2.
For A22U A47U A49G G133C A142U the value was no more than -4.2; for A22U U127A, -3.54.
Take A22G G58C A119U A122U: the “polymerase ribozyme fitness (log ratio)” value was 0.574.
For A22U C27U C36U A98U the value was -3.64; for A23C A29U C38U C54A G84A A98U A106G A137U, no more than -4.2; for A23G C27U A29C C32A C36G C85U C95A U127G, -4.14.
As to A22U G86A C93G C99A A138C, the “polymerase ribozyme fitness (log ratio)” value is no more than -4.2.
A22U A26C U45A G48U U82G C87G C129G: the “polymerase ribozyme fitness (log ratio)” value is no more than -4.2.
With A22G G58A A120G C123A C129G, the “polymerase ribozyme fitness (log ratio)” value is -3.06.
The figure for A22U U56A A64G A122U C123G A150G is no more than -4.2.
Turning to A22G U33G, the “polymerase ribozyme fitness (log ratio)” value was -3.24.
The figure for A22G U55A A89C is -0.257; for A23U G48C C54A C75G G80C C96U G140A it is no more than -4.2; for A22U G34A G62C G68C C96A it is no more than -4.2.
For A22U U56G the value was -0.902; for A22U G50U C54U A66C A91G G92U A138G, no more than -4.2.
The figure for A22U C57A is -0.719; for A23C A24C U61G A110U it is no more than -4.2; for A22U A23G G50C G74C it is no more than -4.2.
For A23U A30G G42U A52U U56A C72G C95G C114G U139A, the “polymerase ribozyme fitness (log ratio)” value was no more than -4.2.
A23C U31C C99U C123U U134C: the “polymerase ribozyme fitness (log ratio)” value is no more than -4.2.
As for A23U C38U, the “polymerase ribozyme fitness (log ratio)” value is -4.06.
The figure for A22U A115C is -0.374; for A22U A26G A49U U102C A138G U144A it is no more than -4.2.
As to A22U A66C C85G, the “polymerase ribozyme fitness (log ratio)” value was no more than -4.2.
For A23C C75G C103U, the “polymerase ribozyme fitness (log ratio)” value is no more than -4.2.
Consider A23G U56A C63A C85U C93U, for which the “polymerase ribozyme fitness (log ratio)” value was no more than -4.2.
The figure for A23G G46C G50A G92A C118U A142U is no more than -4.2.
The figure for A23C C87G A91G C99A C103G is no more than -4.2.
For A22U G94C C95G C96A A122U the value was no more than -4.2.
As for A22G G83C A98U C114U, the “polymerase ribozyme fitness (log ratio)” value is -3.19.
The figure for A23G G59U C95U is -3.41.
For the variant A23U C93A, the “polymerase ribozyme fitness (log ratio)” value is no more than -4.2.
In the case of A23C A29U G68C U82G G133U U134A A138U, the “polymerase ribozyme fitness (log ratio)” value was no more than -4.2.
Turning to A22U A39U C57U G59A U101G U148C A150C, the “polymerase ribozyme fitness (log ratio)” value is no more than -4.2.
The figure for A22U C76G C87G U101G G140C is -4.19; for A23U C43G G48A G92A A98G A147U G152C it is -3.84.
For A22U U31C C32U the value was -3.
Turning to A23G G48U G65C C72U G81C G83U, the “polymerase ribozyme fitness (log ratio)” value was no more than -4.2.
As for A23G G81A A121U G141U, the “polymerase ribozyme fitness (log ratio)” value is -2.76.
The figure for A23G C54U C93U G128C is no more than -4.2; for A22U A29G A150G it is no more than -4.2.
The figure for A23G C93U U101A G140U is -3.86; for A23U A24C G25U G94C A119C C123A G141C it is no more than -4.2; for A22U A37G A41G G48C G94U it is no more than -4.2.
Regarding A22U C103G A110C, the “polymerase ribozyme fitness (log ratio)” value was no more than -4.2.
The figure for A23U A40G C87A G141U is no more than -4.2; for A23U G59U C93U it is no more than -4.2.
As for A23C A29C U31G U33C C95U C96U A107U U127C A138C, the “polymerase ribozyme fitness (log ratio)” value was no more than -4.2.
The figure for A22U A24U G58C A89U G143C is -2.7.
Consider A22U C99U, for which the “polymerase ribozyme fitness (log ratio)” value was -0.0944.
For the variant A22U C99A, the “polymerase ribozyme fitness (log ratio)” value is 0.261.
The figure for A23U C125A is -3.51; for A23C U31G C108G A115G it is no more than -4.2.
As to A23C C93A, the “polymerase ribozyme fitness (log ratio)” value is -3.87.

For the origin of these results see the RNAGym collection of RNA variant scans (doi:10.1073/pnas.2313332121).
